Test results reported in article PMC12518824 (Nature Communications, 2025).

T1: Munc13-4 (full-length human, recombinant) (human, UniProt Q70J99 1-1090)
T1 sequence (looked up): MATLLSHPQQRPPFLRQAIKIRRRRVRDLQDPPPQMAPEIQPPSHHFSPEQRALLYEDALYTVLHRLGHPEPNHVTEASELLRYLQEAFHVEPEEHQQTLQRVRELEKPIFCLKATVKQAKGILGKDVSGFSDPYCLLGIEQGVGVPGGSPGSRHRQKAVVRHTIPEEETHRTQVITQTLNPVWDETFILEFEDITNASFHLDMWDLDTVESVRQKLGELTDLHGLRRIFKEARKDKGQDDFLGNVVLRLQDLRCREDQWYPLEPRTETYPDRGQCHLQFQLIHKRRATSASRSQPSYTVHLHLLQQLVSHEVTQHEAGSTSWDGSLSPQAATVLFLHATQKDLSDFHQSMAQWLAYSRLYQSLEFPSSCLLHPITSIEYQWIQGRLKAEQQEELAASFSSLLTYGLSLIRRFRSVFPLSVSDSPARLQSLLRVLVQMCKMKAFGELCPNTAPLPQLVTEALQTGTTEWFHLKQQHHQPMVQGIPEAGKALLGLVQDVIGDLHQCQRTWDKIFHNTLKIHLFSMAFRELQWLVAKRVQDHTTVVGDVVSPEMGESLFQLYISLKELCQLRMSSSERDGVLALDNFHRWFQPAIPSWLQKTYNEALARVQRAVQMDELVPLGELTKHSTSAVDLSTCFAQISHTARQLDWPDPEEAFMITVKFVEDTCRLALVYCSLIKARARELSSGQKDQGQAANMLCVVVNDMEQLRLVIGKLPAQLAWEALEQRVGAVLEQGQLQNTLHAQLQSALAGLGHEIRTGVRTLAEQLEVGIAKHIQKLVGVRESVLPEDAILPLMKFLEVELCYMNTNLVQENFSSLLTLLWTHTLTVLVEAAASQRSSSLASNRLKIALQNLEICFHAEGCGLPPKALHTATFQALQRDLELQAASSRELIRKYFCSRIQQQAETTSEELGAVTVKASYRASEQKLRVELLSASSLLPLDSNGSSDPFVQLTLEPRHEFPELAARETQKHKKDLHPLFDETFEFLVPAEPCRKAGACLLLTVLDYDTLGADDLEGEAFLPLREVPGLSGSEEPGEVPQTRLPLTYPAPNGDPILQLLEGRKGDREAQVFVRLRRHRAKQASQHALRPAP

T2: syntaxin-4 ΔTM (residues 1–275) (human, UniProt Q12846 1-275)
T2 sequence (looked up): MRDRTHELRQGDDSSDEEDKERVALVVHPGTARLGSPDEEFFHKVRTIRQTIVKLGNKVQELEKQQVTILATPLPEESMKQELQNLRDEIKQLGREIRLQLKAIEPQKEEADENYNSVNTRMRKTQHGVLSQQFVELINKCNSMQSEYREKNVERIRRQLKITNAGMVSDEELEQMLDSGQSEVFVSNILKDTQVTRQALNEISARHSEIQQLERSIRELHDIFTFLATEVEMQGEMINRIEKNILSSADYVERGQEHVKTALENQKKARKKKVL


Key:
[1] = molecular target: T1, Munc13-4 (full-length human, …); experiment: pull-down
[2] = molecular target: T2, syntaxin-4 ΔTM (residues 1–275); experiment: FRET or BRET

binding result [1]	binding result [2]	Binder
binds		GST-Rab27a (full-length) (natural protein, human, UniProt P51159 1-221, looked up) MSDGDYDYLIKFLALGDSGVGKTSVLYQYTDGKFNSKFITTVGIDFREKRVVYRASGPDGATGRGQRIHLQLWDTAGQERFRSLTTAFFRDAMGFLLLFDLTNEQSFLNVRNWISQLQMHAYCENPDIVLCGNKSDLEDQRVVKEEEAIALAEKYGIPYFETSAANGTNISQAIEMLLDLIMKRMERCVDKSWIPEGVVRSNGHASTDQLSEEKEKGACGC
binds		GST-VAMP-7 SNARE motif (residues 123–187) (domain or fragment, human, UniProt P51809 123-187, looked up) LDKVMETQAQVDELKGIMVRNIDLVAQRGERLELLIDKTENLVDSSVTFKTTSRNLARAMCMKNL
	binds	VAMP-7 SNARE motif (residues 123–187, A131C) labeled with BODIPY FL (domain or fragment, human, UniProt P51809 123-187, looked up) LDKVMETQC(BODIPY FL)QVDELKGIMVRNIDLVAQRGERLELLIDKTENLVDSSVTFKTTSRNLARAMCMKNL
